# Publication PMC9927353
# Target: FleQ (Pseudomonas aeruginosa PAO1) (UniProt G3XCV0)
# Assay: EMSA
# Chain of FleQ (Pseudomonas aeruginosa PAO1) (G3XCV0 whole entry): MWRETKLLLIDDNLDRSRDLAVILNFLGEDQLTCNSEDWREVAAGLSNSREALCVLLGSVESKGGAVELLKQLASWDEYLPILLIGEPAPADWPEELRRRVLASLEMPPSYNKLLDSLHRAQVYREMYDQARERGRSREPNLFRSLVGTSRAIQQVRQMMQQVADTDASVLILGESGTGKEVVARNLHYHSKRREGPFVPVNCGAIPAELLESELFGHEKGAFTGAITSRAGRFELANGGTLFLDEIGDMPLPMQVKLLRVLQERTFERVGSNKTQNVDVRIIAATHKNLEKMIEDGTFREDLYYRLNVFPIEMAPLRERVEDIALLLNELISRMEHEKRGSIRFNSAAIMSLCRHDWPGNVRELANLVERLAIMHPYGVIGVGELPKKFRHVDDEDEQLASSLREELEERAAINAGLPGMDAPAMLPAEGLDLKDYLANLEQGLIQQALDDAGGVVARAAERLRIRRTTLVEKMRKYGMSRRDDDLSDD
sequence,measurement,value
GAGTTGCAGCCTTTCCTTGCCGTCAGCCATGGCGCACCTCCGGACGAGGGTACGCGCAGGGGTCTTCGAGATGGCTCATTATTCTTGTCTCCACTCTGTCAGAGGCCGTGTCTTGCGCACGGATGAGCGGATTATTGGCGGCGGATGTAAGACGCCGTTGAACGCGCGGATCGAAGATGTAAAAAGCTGTAAGGAAGTTGTTCGCCGCG (double strand) [lysP promoter (4981)],binding,binds
